In patent publication US20080274110A1 (published 2008):

Molecular target: T1, β2 microglobulin (human, UniProt P61769 21-119)
T1 construct: The 12 kD band on its own, as probed by Western blotting; also called molecule of approximately 12 KD
Assay: Western blotting with the 2D7 antibody
Source text: As a result, a molecule (approximately 12 kD) that precipitates specifically in RPMI8226 and U266 cells was observed (FIG. 3). This molecule was not detected by Western blotting using the 2D7 antibody, but since it is at least reproducibly precipitated by the 2D7 antibody, it was strongly predicted to be the 2D7 antigen itself, or a molecule that co-precipitates with the 2D7 antigen.

T1 sequence (P61769 21-119 limits assumed): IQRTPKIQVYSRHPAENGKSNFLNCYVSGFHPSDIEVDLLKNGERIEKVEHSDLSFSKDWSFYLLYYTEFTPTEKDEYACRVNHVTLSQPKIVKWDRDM

B1: 2D7 antibody (antibody, mouse IgG2b, V domains shown)
VH: QVQLQQSGPELVKPGASVKMSCKASGYTFTDYFIHWVKQRPGQGLEWIGWIFPGDDTTDYNEKFRGKTTLTADKSSSTAYILLSSLTSEDSAMYFCVRSDDFDYWGQGTTLTVSS
VL: QIVLTQSPAIMSASPGEKVTITCSASSSVSYMHWFQQKPGTFPKLWIYSTSNLASGVPTRFSGSGSGTSYSLTISRMEAEDAATYYCQQRTSYPPTFGSGTKLEIK
notes: Whole mouse monoclonal antibody purified on Protein A from ascites of the 2D7 hybridoma (University of Tokushima); Primers for mouse IgG2b constant regions were used to clone its variable regions
  binding result: no binding
